The record followed here is US20230365647A1 (published 2023).

The target of the assay is T1, PLY (W433F) toxoid (Streptococcus pneumoniae, UniProt P0C2J9 2-471).
T1 construct: also called Pdb PLY (W433F); Pdb (W433F)
Kind of assay: immunofluorescence co-localization in human DCs.

B1: Mannose receptor C type 1 on human monocyte-derived dendritic cells (receptor)
chain: LLDTRQFLIYNEDHKRCVDAVSPSAVQTAACNQDAESQKFRWVSESQIMSVAFKLCLGVPSKTDWVAITLYACDSKSEFQKWECKNDTLLGIKGEDLFFNYGNRQEKNIMLYKGSGLWSRWKIYGTTDNLCSRGYEAMYTLLGNANGATCAFPFKFENKWYADCTSAGRSDGWLWCGTTTDYDTDKLFGYCPLKFEGSESLWNKDPLTSVSYQINSKSALTWHQARKSCQQQNAELLSITEIHEQTYLTGLTSSLTSGLWIGLNSLSFNSGWQWSDRSPFRYLNWLPGSPSAEPGKSCVSLNPGKNAKWENLECVQKLGYICKKGNTTLNSFVIPSESDVPTHCPSQWWPYAGHCYKIHRDEKKIQRDALTTCRKEGGDLTSIHTIEELDFIISQLGYEPNDELWIGLNDIKIQMYFEWSDGTPVTFTKWLRGEPSHENNRQEDCVVMKGKDGYWADRGCEWPLGYICKMKSRSQGPEIVEVEKGCRKGWKKHHFYCYMIGHTLSTFAEANQTCNNENAYLTTIEDRYEQAFLTSFVGLRPEKYFWTGLSDIQTKGTFQWTIEEEVRFTHWNSDMPGRKPGCVAMRTGIAGGLWDVLKCDEKAKFVCKHWAEGVTHPPKPTTTPEPKCPEDWGASSRTSLCFKLYAKGKHEKKTWFESRDFCRALGGDLASINNKEEQQTIWRLITASGSYHKLFWLGLTYGSPSEGFTWSDGSPVSYENWAYGEPNNYQNVEYCGELKGDPTMSWNDINCEHLNNWICQIQKGQTPKPEPTPAPQDNPPVTEDGWVIYKDYQYYFSKEKETMDNARAFCKRNFGDLVSIQSESEKKFLWKYVNRNDAQSAYFIGLLISLDKKFAWMDGSKVDYVSWATGEPNFANEDENCVTMYSNSGFWNDINCGYPNAFICQRHNSSINATTVMPTMPSVPSGCKEGWNFYSNKCFKIFGFMEEERKNWQEARKACIGFGGNLVSIQNEKEQAFLTYHMKDSTFSAWTGLNDVNSEHTFLWTDGRGVHYTNWGKGYPGGRRSSLSYEDADCVVIIGGASNEAGKWMDDTCDSKRGYICQTRSDPSLTNPPATIQTDGFVKYGKSSYSLMRQKFQWHEAETYCKLHNSLIASILDPYSNAFAWLQMETSNERVWIALNSNLTDNQYTWTDKWRVRYTNWAADEPKLKSACVYLDLDGYWKTAHCNESFYFLCKRSDEIPATEPPQLPGRCPESDHTAWIPFHGHCYYIESSYTRNWGQASLECLRMGSSLVSIESAAESSFLSYRVEPLKSKTNFWIGLFRNVEGTWLWINNSPVSFVNWNTGDPSGERNDCVALHASSGFWSNIHCSSYKGYICKRPKIIDAKPTHELLTTKADTRKMDPSKPSSNVAGVVIIVILLILTGAGLAAYFFYKKRRVHLPQEGAFENTLYFNSQSSPGTSDMKDLVGNIEQNEHSVI
notes: also called MRC-1
B1: the binding result is recorded as “no binding (tested: 0.2 µg/ml)”.
